Assay results as given in patent US5698421.
Numbering of substitutions follows the chain as printed.

Key:
[1] = biological target: T1, aI2-encoded protein P714T P714T (Saccharomyces cerevisiae) (UniProt P03876); assay: cleavage_in_vitro; details: relative to Example 1 RNP
T1 sequence: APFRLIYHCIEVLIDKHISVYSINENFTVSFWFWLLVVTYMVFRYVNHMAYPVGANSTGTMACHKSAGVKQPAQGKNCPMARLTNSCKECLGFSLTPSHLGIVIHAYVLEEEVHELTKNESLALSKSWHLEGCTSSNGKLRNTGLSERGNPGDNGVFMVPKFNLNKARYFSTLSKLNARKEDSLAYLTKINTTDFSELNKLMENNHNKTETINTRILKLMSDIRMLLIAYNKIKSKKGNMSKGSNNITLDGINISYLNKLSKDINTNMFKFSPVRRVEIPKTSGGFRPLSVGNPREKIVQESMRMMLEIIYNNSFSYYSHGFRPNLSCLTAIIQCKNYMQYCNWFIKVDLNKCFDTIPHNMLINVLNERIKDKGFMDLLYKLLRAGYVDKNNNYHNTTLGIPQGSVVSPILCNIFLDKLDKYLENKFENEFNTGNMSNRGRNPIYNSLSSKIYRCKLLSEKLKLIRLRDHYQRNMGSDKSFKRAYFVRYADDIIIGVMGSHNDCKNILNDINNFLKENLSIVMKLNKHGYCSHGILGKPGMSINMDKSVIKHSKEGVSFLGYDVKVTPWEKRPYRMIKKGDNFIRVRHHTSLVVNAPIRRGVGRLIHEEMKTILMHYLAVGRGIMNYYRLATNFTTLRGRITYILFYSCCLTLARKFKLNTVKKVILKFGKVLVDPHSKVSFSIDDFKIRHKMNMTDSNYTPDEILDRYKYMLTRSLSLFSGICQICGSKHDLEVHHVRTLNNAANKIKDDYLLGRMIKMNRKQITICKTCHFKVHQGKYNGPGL

[2] = biological target: T2, aI2-encoded protein (wild-type, 62 kDa), aI2 RNP particle (Saccharomyces cerevisiae) (UniProt P03876); assay: cleavage_in_vitro; details: 20 mM Mg
T2 sequence: T1 sequence with T714P

excised aI2 RNA, strain-specific mutated ; pE2E3-derived substrate, E2-E3 target
relative cleavage activity ([1]; antisense strand): 6%
relative cleavage activity ([1]; sense strand): 25%

excised aI2 intron RNA ; pE2E3 142 nt RNA substrate
binding signal (relative rate) [2]: 1
